The record followed here is doi:10.1101/2020.02.09.940833 (bioRxiv, 2020).

The test concerns the target SAR1B (human, UniProt Q9Y6B6 1-198). Briefly: liposome flotation.

SAR1B, sequence (Q9Y6B6 whole entry): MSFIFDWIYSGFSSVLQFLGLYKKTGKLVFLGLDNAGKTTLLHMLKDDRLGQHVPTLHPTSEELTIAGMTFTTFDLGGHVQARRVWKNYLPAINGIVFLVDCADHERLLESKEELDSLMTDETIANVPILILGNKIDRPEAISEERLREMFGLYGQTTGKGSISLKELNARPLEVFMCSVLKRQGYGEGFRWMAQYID

B1: SEC23B (natural protein)
chain: MATYLEFIQQNEERDGVRFSWNVWPSSRLEATRMVVPLACLLTPLKERPDLPPVQYEPVLCSRPTCKAVLNPLCQVDYRAKLWACNFCFQRNQFPPAYGGISEVNQPAELMPQFSTIEYVIQRGAQSPLIFLYVVDTCLEEDDLQALKESLQMSLSLLPPDALVGLITFGRMVQVHELSCEGISKSYVFRGTKDLTAKQIQDMLGLTKPAMPMQQARPAQPQEHPFASSRFLQPVHKIDMNLTDLLGELQRDPWPVTQGKRPLRSTGVALSIAVGLLEGTFPNTGARIMLFTGGPPTQGPGMVVGDELKIPIRSWHDIEKDNARFMKKATKHYEMLANRTAANGHCIDIYACALDQTGLLEMKCCANLTGGYMVMGDSFNTSLFKQTFQRIFTKDFNGDFRMAFGATLDVKTSRELKIAGAIGPCVSLNVKGPCVSENELGVGGTSQWKICGLDPTSTLGIYFEVVNQHNTPIPQGGRGAIQFVTHYQHSSTQRRIRVTTIARNWADVQSQLRHIEAAFDQEAAAVLMARLGVFRAESEEGPDVLRWLDRQLIRLCQKFGQYNKEDPTSFRLSDSFSLYPQFMFHLRRSPFLQVFNNSPDESSYYRHHFARQDLTQSLIMIQPILYSYSFHGPPEPVLLDSSSILADRILLMDTFFQIVIYLGETIAQWRKAGYQDMPEYENFKHLLQAPLDDAQEILQARFPMPRYINTEHGGSQARFLLSKVNPSQTHNNLYAWGQETGAPILTDDVSLQVFMDHLKKLAVSSAC
Consider B1, for which the “fold binding relative to SAR1A, with SEC31A-af added” value was approximately 5 fold and the “fold recruitment relative to SAR1A” value is approximately 5 fold.

B2: SEC23A (natural protein)
chain: MTTYLEFIQQNEERDGVRFSWNVWPSSRLEATRMVVPVAALFTPLKERPDLPPIQYEPVLCSRTTCRAVLNPLCQVDYRAKLWACNFCYQRNQFPPSYAGISELNQPAELLPQFSSIEYVVLRGPQMPLIFLYVVDTCMEDEDLQALKESMQMSLSLLPPTALVGLITFGRMVQVHELGCEGISKSYVFRGTKDLSAKQLQEMLGLSKVPLTQATRGPQVQQPPPSNRFLQPVQKIDMNLTDLLGELQRDPWPVPQGKRPLRSSGVALSIAVGLLECTFPNTGARIMMFIGGPATQGPGMVVGDELKTPIRSWHDIDKDNAKYVKKGTKHFEALANRAATTGHVIDIYACALDQTGLLEMKCCPNLTGGYMVMGDSFNTSLFKQTFQRVFTKDMHGQFKMGFGGTLEIKTSREIKISGAIGPCVSLNSKGPCVSENEIGTGGTCQWKICGLSPTTTLAIYFEVVNQHNAPIPQGGRGAIQFVTQYQHSSGQRRIRVTTIARNWADAQTQIQNIAASFDQEAAAILMARLAIYRAETEEGPDVLRWLDRQLIRLCQKFGEYHKDDPSSFRFSETFSLYPQFMFHLRRSSFLQVFNNSPDESSYYRHHFMRQDLTQSLIMIQPILYAYSFSGPPEPVLLDSSSILADRILLMDTFFQILIYHGETIAQWRKSGYQDMPEYENFRHLLQAPVDDAQEILHSRFPMPRYIDTEHGGSQARFLLSKVNPSQTHNNMYAWGQESGAPILTDDVSLQVFMDHLKKLAVSSAA
Consider B2, for which the “fold binding relative to SAR1A, with SEC31A-af added” value is approximately 5 fold and the “fold recruitment relative to SAR1A” value was approximately 5 fold.
